Two substances from US20090215686A1 can be followed below.

This experiment addresses Met on MDCK (Madin-Darby canine kidney) cells (canine) (UniProt Q75ZY9). As to the kind of experiment: cell-based or functional assay.

“NK1 version of the receptor-binding mutant K1M (E195A:R197A:Y198A) (from UniProt P14210 28-209) (ligand)” gave a concentration at which agonistic activity is seen (MDCK colony scatter) greater than 10 nM. “NK1 version of the receptor-binding mutant K1N (E159A:S161A:E195A:R197A:Y198A) (from UniProt P14210 28-209) (ligand)” had a concentration at which agonistic activity is seen (MDCK colony scatter) of 100 nM.
